From the supplement of paper PMC10724198
± gives the standard deviation of the averaged measurements.

The sequences below were run on Saccharomyces cerevisiae (assay: protein stability index of tFT-peptide fusion (C-terminal peptide) (PSI (0-1 scale)); higher = more stable (slower turnover)). Settings: genetic background: wild type; temperature: 30 C.
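Further: PSI is a weighted mean of sequencing reads over stability bins, variants kept only with over 10 reads, mCherry proximal and sfGFP distal, peptide attached via GGGS linker.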

| Sequence | protein stability index |
| --- | --- |
| LEGGVREMRGDG | 0.641 ± 0.053 |
| LEPHEIKERRPL | 0.721 ± 0.066 |
| LEQNCYYGEFSS | 0.665 ± 0.035 |
| LETEVDIYWLYR | 0.605 ± 0.048 |
| LEVHQGYLSSCH | 0.676 ± 0.12 |
| LFALSVHTHPYP | 0.73 ± 0.024 |
| LFDRRDTSTLLL | 0.707 ± 0.032 |
| LFENNGIKCHKR | 0.683 ± 0.013 |
| LFFGVEWWRFEG | 0.5604 ± 0.0023 |
| LFFLFSPFSRLP | 0.786 ± 0.089 |
| LFGAGGGGVEVG | 0.672 ± 0.14 |
| LFGPRCTSSSAV | 0.689 ± 0.015 |
| LFGSMGVLGIGR | 0.672 ± 0.061 |
| LFIGKEGWVACL | 0.562 ± 0.019 |
| LFIYSMKRFILE | 0.631 ± 0.052 |
| LFKKVGGRSLVW | 0.6813 ± 0.0036 |
| LFLAPFRLVLGV | 0.518 ± 0.01 |
| LFLLSLLDWGFR | 0.661 ± 0.072 |
| LFLPPLFRRSPF | 0.684 ± 0.018 |
| LFLWRFPSPFRA | 0.661 ± 0.036 |
| LFPCPLRPGCLP | 0.699 ± 0.099 |
| LFPLAPRRLAPP | 0.628 ± 0.069 |
| LFPLPHPLPVSL | 0.6146 ± 0.0053 |
| LFPPPPPSPRCL | 0.637 ± 0.055 |
| LFRPFATALFPL | 0.747 ± 0.066 |
| LFRWLLRLVISH | 0.608 ± 0.021 |

| Sequence | protein stability index |
| --- | --- |
| LFSLPPPSPPPR | 0.694 ± 0.03 |
| LFTPLLVPYPTP | 0.522 ± 0.0028 |
| LFVYSSVALSSQ | 0.59301 ± 0.00049 |
| LFYFFGKRPAHL | 0.781 ± 0.045 |
| LGAHLSTAPPPP | 0.655 ± 0.022 |
| LGDVRRENKQLP | 0.6981 ± 0.003 |
| LGFVGVRSVRSG | 0.667 ± 0.059 |
| LGGGGPSVREGE | 0.679 ± 0.05 |
| LGGGGVGGVRGV | 0.6675 ± 0.0046 |
| LGGLLLCLGLSG | 0.674 ± 0.058 |
| LGGRGGACRRDR | 0.7 ± 0.019 |
| LGHQFKGTILRV | 0.73 ± 0.059 |
| LGKVAGLGAGRP | 0.719 ± 0.034 |
| LGPFTEAVSRHC | 0.67 ± 0.021 |
| LGQRFRLFVSFF | 0.468 ± 0.077 |
| LGRAGMWTRRGL | 0.663 ± 0.034 |
| LGRCRQTERETS | 0.649 ± 0.089 |
| LGRGRWSVLVVR | 0.5287 ± 0.0014 |
| LGSFLPLLPSPP | 0.674 ± 0.041 |
| LGSGVQGEGRGW | 0.678 ± 0.042 |
| LGTVPLLPPRSP | 0.713 ± 0.028 |
| LGVIHPSVYFCL | 0.5416 ± 0.0023 |
| LGVMLLEGWRVM | 0.656 ± 0.018 |
| LGVPGSGDGEWW | 0.592 ± 0.029 |
| LGVVSCAVVGFV | 0.625 ± 0.041 |
| LGWGGGGPLSGG | 0.7197 ± 0.0054 |

| Sequence | protein stability index |
| --- | --- |
| LGWWWVWSWGRG | 0.668 ± 0.04 |
| LHGFYSKKAINR | 0.701 ± 0.031 |
| LHGLSGRLLFDV | 0.574 ± 0.2 |
| LHHPPAPPLPPP | 0.695 ± 0.018 |
| LHLDTMPQEKNN | 0.668 ± 0.036 |
| LHPAPPAAPTRP | 0.711 ± 0.016 |
| LHPRPPLFLHPL | 0.692 ± 0.015 |
| LHRFYVGQLVVN | 0.522 ± 0.0092 |
| LHSNFGSSVFSL | 0.713 ± 0.012 |
| LHSPWPFSAPGI | 0.855 ± 0.2 |
| LIGKNNTSIQLK | 0.742 ± 0.16 |
| LIIGYFSSRVCL | 0.61 ± 0.074 |
| LILRPLPPPLPP | 0.5623 ± 0.0014 |
| LIMLNNIENSSI | 0.678 ± 0.01 |
| LIQHVTKLTPFF | 0.694 ± 0.012 |
| LIRFFSSSRPGS | 0.671 ± 0.15 |
| LIRPSAPSHRSP | 0.798 ± 0.025 |
| LISFSGFSPFLW | 0.7678 ± 0.0027 |
| LISISNINEGVI | 0.688 ± 0.037 |
| LISPPAQLAFVP | 0.696 ± 0.016 |
| LISRFFPSRSAP | 0.854 ± 0.021 |
| LIVSTAGVTQFS | 0.66 ± 0.012 |
| LIWHTLSTVIPF | 0.657 ± 0.029 |
| LKNKVDGKVSGK | 0.6014 ± 0.0045 |
| LKPGYQGQHKED | 0.7 ± 0.029 |
| LKPKLDFHIWDV | 0.67 ± 0.1 |

| Sequence | protein stability index |
| --- | --- |
| LKQKMKETGRRR | 0.666 ± 0.058 |
| LKRSDFSFLEKV | 0.701 ± 0.075 |
| LKSGAWFFRIGY | 0.66 ± 0.018 |
| LKYETGTILRMT | 0.563 ± 0.013 |
| LLAFLPPPPCPP | 0.709 ± 0.036 |
| LLATCGAIHTFC | 0.637 ± 0.01 |
| LLCFGGRGPLAD | 0.713 ± 0.028 |
| LLCTSSGYWAWK | 0.699 ± 0.0087 |
| LLFFRSPFSLVS | 0.6465 ± 0.0059 |
| LLFLGSSLRDTF | 0.759 ± 0.0098 |
| LLGGLHIPHPLR | 0.681 ± 0.052 |
| LLGSFSLSMSSL | 0.717 ± 0.021 |
| LLINTARWSEAG | 0.662 ± 0.049 |
| LLLLDPPLPPPP | 0.684 ± 0.015 |
| LLLLRSPPPTPP | 0.6722 ± 0.0021 |
| LLLLSTCSPLLL | 0.618 ± 0.021 |
| LLLPPRPPPSVP | 0.742 ± 0.15 |
| LLLQLSPLLTSL | 0.646 ± 0.019 |
| LLLSSPPFPALL | 0.638 ± 0.0074 |
| LLPLPSPLPACP | 0.709 ± 0.02 |
| LLPLTWTTVQGP | 0.694 ± 0.027 |
| LLPPPPVPTPDR | 0.659 ± 0.12 |
| LLPPRPSSSPPS | 0.704 ± 0.026 |
